Experimental data as given in publication PMC7296346, “Dynamic Palmitoylation of the Sodium-Calcium Exchanger Modulates Its Structure, Affinity for Lipid-Ordered Domains, and Inhibition by XIP” (Cell Reports, 2020).

Assays:
[1] = target: C739A NCX1, full length, tetracycline-inducible in FT-293 cells (canine); experiment: cross-linking; FT-293 cells expressing tetracycline-inducible NCX1 treated with 0.1 mM BMH for 5 min at 37°C in 10 mM Tris-HCl pH 7.2, 150 mM NaCl; lysed in 1% Triton X-100; SDS-PAGE
[2] = target: the molecule itself; experiment: as above

Molecule	stoichiometry N [1]	stoichiometry N [2]
C739A NCX1, full length, tetracycline-inducible in FT-293 cells (natural protein)	2	–
wild-type (WT) NCX1, full length, tetracycline-inducible in FT-293 cells (natural protein, canine, UniProt P23685 33-970, looked up, palmitoylated at cysteine 739, Na-Ca exchanger 1, canine, NCX1.1 cDNA; Forms a dimer (cross-linking); The cell line is from Reilly et al., 2015; source: in cells or in lysate) ETEMEGEGNETGECTGSYYCKKGVILPIWEPQDPSFGDKIARATVYFVAMVYMFLGVSIIADRFMSSIEVITSQEKEITIKKPNGETTKTTVRIWNETVSNLTLMALGSSAPEILLSVIEVCGHNFTAGDLGPSTIVGSAAFNMFIIIALCVYVVPDGETRKIKHLRVFFVTAAWSIFAYTWLYIILSVISPGVVEVWEGLLTFFFFPICVVFAWVADRRLLFYKYVYKRYRAGKQRGMIIEHEGDRPSSKTEIEMDGKVVNSHVDNFLDGALVLEVDERDQDDEEARREMARILKELKQKHPEKEIEQLIELANYQVLSQQQKSRAFYRIQATRLMTGAGNILKRHAADQARKAVSMHEVNTEVAENDPVSKIFFEQGTYQCLENCGTVALTIIRRGGDLTNTVFVDFRTEDGTANAGSDYEFTEGTVVFKPGETQKEIRVGIIDDDIFEEDENFLVHLSNVKVSSEASEDGILEANHVSALACLGSPSTATVTIFDDDHAGIFTFEEPVTHVSESIGIMEVKVLRTSGARGNVIVPYKTIEGTARGGGEDFEDTCGELEFQNDEIVKTISVKVIDDEEYEKNKTFFLEIGEPRLVEMSEKKALLLNELGGFTITGKYLYGQPVFRKVHAREHPIPSTVITIAEEYDDKQPLTSKEEEERRIAEMGRPILGEHTKLEVIIEESYEFKSTVDKLIKKTNLALVVGTNSWREQFIEAITVSAGEDDDDDECGEEKLPSCFDYVMHFLTVFWKVLFAFVPPTEYWNGWACFIVSILMIGILTAFIGDLASHFGCTIGLKDSVTAVVFVALGTSVPDTFASKVAATQDQYADASIGNVTGSNAVNVFLGIGVAWSIAAIYHAANGEQFKVSPGTLAFSVTLFTIFAFINVGVLLYRRRPEIGGELGGPRTAKLLTSCLFVLLWLLYIFFSSLEAYCHIKGF	–	2
